Experiment [1] addresses Pseudomonas moraviensis stanleyea GRLMR (glutathione reductase-like metalloid reductase), without SeBP (Pseudomonas moraviensis, UniProt A0A2A2PF31). In words: KM and kcat study: NADPH consumption at 340 nm, V0 vs substrate concentration. In kind it is biochemical. To be noted: substrate HNaSeO3; PBS, pH 7.4; 13 μg of enzyme; 200 μM NADPH; 0.05 mM-2 mM substrate. From the text: (§1) Because of the dramatic difference in SeBP size, morphology and aggregation state that depends on SeBP concatenation to GRLMR, whether this concatenation also alters the kinetic properties of the enzyme was investigated. To explore this possibility, NADPH concentrations were monitored spectroscopically during GRLMR enzymatic reactions to establish fundamental enzymatic kinetics in the presence and absence of the peptide. FIG. 4 depicts the plots of V0s attained by the GRLMR with and without SeBP over a range of substrate concentrations.
(§2) Initial velocities (V0) of the GRLMR-SeBP were performed in various concentrations of HNaSeO3 or GSSG while monitoring 340 nm correlating to NADPH absorbance. The reactions were run in PBS, pH 7.4 and with 13 μg of enzyme with substrate SeO3^2− (1.5 μg of enzyme with substrate GSSG) and 200 μM of NADPH with 0.05 mM-2 mM of substrate. Enzymatic V0s were plotted against substrate concentration in OriginPro from which KM and kcat could then be calculated.

Experiment [2] deals with T1, Pseudomonas moraviensis stanleyea GRLMR-SeBP (glutathione reductase-like metalloid reductase, GRLMR, with the selenium nanoparticle binding peptide SeBP/SeBP1, (Pseudomonas moraviensis, UniProt A0A2A2PF31, INS452LTPHKHHKHLHA)).
T1 sequence (A0A2A2PF31 1-452 INS452LTPHKHHKHLHA): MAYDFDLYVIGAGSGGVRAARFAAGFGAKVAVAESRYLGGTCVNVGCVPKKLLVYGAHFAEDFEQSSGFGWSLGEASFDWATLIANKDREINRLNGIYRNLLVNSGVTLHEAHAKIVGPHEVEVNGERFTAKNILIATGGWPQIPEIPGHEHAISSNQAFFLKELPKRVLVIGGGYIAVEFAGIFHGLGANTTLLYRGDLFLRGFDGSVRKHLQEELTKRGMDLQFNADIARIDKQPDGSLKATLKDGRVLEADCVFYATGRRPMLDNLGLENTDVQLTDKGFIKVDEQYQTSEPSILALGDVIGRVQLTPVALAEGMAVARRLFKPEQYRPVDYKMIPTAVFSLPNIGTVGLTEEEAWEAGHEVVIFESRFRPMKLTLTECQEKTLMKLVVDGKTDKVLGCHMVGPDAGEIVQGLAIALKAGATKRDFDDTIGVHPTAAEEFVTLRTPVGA
The description is as above. To be noted: substrate HNaSeO3; PBS, pH 7.4; 13 μg of enzyme; 200 μM NADPH; 0.05 mM-2 mM substrate. In kind it is biochemical.
Excerpt: as §1, §2

Experiment [3] concerns the target glutathione reductase-like metalloid reductase (GRLMR) (Pseudomonas moraviensis stanleyae). In words: negative binding assay: phage (input 10^10 pfu) on wells coated with unreacted GRLMR, acid-eluted phage titered on E. coli.

“And” between values parts separate entries of the source, which are not always exact repeats. Equal entries are not always repeated. Ends that are not written are not given here.

In general, Km refers to the concentration of substrate that gives half-maximal velocity. The kcat is the number of substrate molecules converted per active site and unit of time at saturation.

Chain of Wild Type M13 phage (no inserted sequence) (P69168 19-424 limits assumed): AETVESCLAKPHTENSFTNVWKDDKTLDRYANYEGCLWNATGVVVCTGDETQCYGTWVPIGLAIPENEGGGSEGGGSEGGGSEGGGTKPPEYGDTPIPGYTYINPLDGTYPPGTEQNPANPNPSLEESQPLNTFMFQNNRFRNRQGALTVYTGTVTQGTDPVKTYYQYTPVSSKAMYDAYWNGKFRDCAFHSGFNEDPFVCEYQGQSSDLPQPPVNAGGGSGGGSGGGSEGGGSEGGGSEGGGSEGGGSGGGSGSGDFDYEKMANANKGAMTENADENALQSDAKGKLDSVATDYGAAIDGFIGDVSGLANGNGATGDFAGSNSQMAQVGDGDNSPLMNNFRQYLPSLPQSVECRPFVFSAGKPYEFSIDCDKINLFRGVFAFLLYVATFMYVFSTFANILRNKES

With `O=[Se]([O-])O.[Na+]` [HNaSeO3], in experiment [1], the Michaelis constant (Km) was 1920 ± 1280 µM; the kcat is 0.38038 ± 0.1473 s⁻¹ and 0.38038 s⁻¹. Besides, in experiment [2], the Michaelis constant (Km) amounted to 217 ± 57 µM; the kcat was 0.67193 ± 0.04143 s⁻¹ and 0.67193 s⁻¹.

“Wild Type M13 phage (no inserted sequence) (from UniProt P69168 19-424)” came in with an eluted phage titer (pfu) in experiment [3] of 150000 pfu.

The molecule WPRHHWHTNYMR-{M13 pIII} (peptide, not shown: large carriers, also: displayed on M13 phage pIII, linker not given here) [SeBP3 (…) displayed on M13 phage] yielded an eluted phage titer (pfu) in experiment [3] of 3.9e+08 pfu.

For GWHSPHAHWRVK-{M13 pIII} (peptide, not shown: large carriers, also: displayed on M13 phage pIII, linker not given here) [SeBP4 (…) displayed on M13 phage], the eluted phage titer (pfu) in experiment [3] was determined as 330000 pfu.

The molecule THYNPLRINPIT-{M13 pIII} (peptide, not shown: large carriers, also: displayed on M13 phage pIII, linker not given here) [SeBP5 (…) displayed on M13 phage] gave an eluted phage titer (pfu) in experiment [3] of 680000 pfu.

Molecule GPHHMHHHRTHH-{M13 pIII} (peptide, not shown: large carriers, also: displayed on M13 phage pIII, linker not given here) [SeBP2 (…) displayed on M13 phage] returned an eluted phage titer (pfu) in experiment [3] of 2.1e+09 pfu.

The values are drawn from patent US12339286B2, “Metal-reducing enzymatic tag for optical and electron microscopy” (Colorado State University Research Foundation, priority 2018, dated 2025).
